For assay [1], the target named is T1, recombinant human WT C3(H2O) (human, UniProt P01024 23-1663). Put plainly: SPR; methylamine-treated C3.
In assay [2] the target is recombinant human C3(H2O) Asn1115 (human, UniProt P01024 23-1663, D1115N). Description: SPR; methylamine-treated C3.
The target in assay [3] is T1, recombinant human WT C3(H2O). Description: SPR.
Assay [4] addresses murine C3b Asn1115 (mouse, UniProt P01027 749-1663; P01027 749-1663, D1115N). Description: SPR.

T1 sequence (P01024 23-1663): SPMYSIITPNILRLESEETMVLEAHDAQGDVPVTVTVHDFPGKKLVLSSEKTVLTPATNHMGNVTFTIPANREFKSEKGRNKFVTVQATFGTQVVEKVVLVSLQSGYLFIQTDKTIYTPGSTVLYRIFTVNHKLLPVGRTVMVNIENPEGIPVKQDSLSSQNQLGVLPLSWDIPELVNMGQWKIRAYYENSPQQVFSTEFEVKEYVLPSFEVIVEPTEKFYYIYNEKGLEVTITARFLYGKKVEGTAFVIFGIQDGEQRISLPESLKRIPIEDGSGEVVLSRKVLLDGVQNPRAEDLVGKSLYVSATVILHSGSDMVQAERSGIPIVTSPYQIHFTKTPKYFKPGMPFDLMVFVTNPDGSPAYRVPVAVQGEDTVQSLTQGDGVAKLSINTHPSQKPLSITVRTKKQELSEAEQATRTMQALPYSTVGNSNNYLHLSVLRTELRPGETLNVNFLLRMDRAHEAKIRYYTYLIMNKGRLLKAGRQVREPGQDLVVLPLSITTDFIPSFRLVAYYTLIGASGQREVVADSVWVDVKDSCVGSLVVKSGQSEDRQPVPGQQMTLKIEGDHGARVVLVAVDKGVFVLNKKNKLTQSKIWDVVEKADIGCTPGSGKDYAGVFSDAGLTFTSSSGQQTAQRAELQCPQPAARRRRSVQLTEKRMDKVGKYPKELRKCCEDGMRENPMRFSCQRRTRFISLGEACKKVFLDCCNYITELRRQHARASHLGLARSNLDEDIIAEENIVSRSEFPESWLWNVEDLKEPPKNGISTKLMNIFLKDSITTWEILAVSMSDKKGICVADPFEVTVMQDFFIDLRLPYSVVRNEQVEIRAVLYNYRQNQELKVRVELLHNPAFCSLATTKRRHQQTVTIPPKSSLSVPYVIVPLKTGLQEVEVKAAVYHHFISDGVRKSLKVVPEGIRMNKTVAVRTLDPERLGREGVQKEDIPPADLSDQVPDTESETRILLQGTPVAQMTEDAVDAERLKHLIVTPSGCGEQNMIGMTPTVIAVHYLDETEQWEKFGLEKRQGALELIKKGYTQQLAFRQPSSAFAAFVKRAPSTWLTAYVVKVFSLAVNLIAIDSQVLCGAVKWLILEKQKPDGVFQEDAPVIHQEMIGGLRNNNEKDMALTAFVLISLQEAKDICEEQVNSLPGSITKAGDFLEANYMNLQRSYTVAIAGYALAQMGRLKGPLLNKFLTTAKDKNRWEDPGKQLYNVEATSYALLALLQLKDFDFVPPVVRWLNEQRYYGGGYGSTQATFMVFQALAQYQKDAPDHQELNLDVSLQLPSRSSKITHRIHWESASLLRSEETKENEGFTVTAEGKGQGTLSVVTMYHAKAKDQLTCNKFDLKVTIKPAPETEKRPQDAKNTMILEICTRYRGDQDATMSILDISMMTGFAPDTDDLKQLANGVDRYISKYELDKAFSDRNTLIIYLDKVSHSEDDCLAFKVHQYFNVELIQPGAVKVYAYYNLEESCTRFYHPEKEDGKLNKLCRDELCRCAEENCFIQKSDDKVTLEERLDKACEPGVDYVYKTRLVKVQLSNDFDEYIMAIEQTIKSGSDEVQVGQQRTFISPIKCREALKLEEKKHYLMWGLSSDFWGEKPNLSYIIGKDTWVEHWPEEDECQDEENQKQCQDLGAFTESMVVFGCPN
Chain of murine C3b Asn1115 (P01027 25-666, chain 1 of 2): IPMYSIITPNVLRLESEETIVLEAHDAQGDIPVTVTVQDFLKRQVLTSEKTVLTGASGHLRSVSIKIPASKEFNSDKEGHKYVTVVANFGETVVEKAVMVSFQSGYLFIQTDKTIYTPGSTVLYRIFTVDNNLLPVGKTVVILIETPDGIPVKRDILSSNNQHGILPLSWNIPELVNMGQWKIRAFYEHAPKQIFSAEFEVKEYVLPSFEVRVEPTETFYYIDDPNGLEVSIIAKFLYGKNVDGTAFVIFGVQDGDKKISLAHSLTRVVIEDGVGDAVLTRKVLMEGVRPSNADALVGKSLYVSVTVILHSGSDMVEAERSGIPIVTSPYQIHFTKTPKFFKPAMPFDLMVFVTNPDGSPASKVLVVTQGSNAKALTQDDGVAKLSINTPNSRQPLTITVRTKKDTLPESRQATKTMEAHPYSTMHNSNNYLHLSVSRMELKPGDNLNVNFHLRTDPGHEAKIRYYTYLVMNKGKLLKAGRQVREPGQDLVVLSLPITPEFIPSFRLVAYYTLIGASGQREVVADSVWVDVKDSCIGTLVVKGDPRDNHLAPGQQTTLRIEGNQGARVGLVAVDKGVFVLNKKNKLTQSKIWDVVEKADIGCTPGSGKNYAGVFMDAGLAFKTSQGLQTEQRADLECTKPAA
Chain of murine C3b Asn1115 (P01027 749-1663 D1115N, chain 2 of 2): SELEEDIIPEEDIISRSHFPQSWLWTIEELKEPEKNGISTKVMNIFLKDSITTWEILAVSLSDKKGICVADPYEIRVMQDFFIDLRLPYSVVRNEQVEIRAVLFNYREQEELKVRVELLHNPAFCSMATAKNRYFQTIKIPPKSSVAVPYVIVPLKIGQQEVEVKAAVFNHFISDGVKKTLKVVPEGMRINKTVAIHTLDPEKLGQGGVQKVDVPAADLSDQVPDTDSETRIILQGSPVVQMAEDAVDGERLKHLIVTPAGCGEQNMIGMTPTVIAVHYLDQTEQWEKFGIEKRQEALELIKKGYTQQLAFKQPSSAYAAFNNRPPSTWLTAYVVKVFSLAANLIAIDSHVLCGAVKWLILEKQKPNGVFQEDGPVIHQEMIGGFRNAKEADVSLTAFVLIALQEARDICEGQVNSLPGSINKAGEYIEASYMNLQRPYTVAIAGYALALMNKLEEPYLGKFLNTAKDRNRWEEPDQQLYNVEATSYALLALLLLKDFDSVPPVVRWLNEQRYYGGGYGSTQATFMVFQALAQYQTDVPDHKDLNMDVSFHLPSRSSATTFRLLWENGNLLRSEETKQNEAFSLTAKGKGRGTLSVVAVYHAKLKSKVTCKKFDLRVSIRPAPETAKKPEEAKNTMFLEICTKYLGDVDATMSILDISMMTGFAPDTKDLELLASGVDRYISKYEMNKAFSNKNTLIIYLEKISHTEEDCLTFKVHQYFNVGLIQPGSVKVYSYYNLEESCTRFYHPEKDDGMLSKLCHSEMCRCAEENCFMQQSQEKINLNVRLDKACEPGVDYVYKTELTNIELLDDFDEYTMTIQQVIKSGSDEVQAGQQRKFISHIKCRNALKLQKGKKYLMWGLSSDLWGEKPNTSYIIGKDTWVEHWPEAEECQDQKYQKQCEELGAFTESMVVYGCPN
Chain of recombinant human C3(H2O) Asn1115 (P01024 23-1663 D1115N): as the sequence (P01024 23-1663) above, with D1093N counted along it

B1: human FH (natural protein)
chain: EDCNELPPRRNTEILTGSWSDQTYPEGTQAIYKCRPGYRSLGNVIMVCRKGEWVALNPLRKCQKRPCGHPGDTPFGTFTLTGGNVFEYGVKAVYTCNEGYQLLGEINYRECDTDGWTNDIPICEVVKCLPVTAPENGKIVSSAMEPDREYHFGQAVRFVCNSGYKIEGDEEMHCSDDGFWSKEKPKCVEISCKSPDVINGSPISQKIIYKENERFQYKCNMGYEYSERGDAVCTESGWRPLPSCEEKSCDNPYIPNGDYSPLRIKHRTGDEITYQCRNGFYPATRGNTAKCTSTGWIPAPRCTLKPCDYPDIKHGGLYHENMRRPYFPVAVGKYYSYYCDEHFETPSGSYWDHIHCTQDGWSPAVPCLRKCYFPYLENGYNQNYGRKFVQGKSIDVACHPGYALPKAQTTVTCMENGWSPTPRCIRVKTCSKSSIDIENGFISESQYTYALKEKAKYQCKLGYVTADGETSGSITCGKDGWSAQPTCIKSCDIPVFMNARTKNDFTWFKLNDTLDYECHDGYESNTGSTTGSIVCGYNGWSDLPICYERECELPKIDVHLVPDRKKDQYKVGEVLKFSCKPGFTIVGPNSVQCYHFGLSPDLPICKEQVQSCGPPPELLNGNVKEKTKEEYGHSEVVEYYCNPRFLMKGPNKIQCVDGEWTTLPVCIVEESTCGDIPELEHGWAQLSSPPYYYGDSVEFNCSESFTMIGHRSITCIHGVWTQLPQCVAIDKLKKCKSSNLIILEEHLKNKKEFDHNSNIRYRCRGKEGWIHTVCINGRWDPEVNCSMAQIQLCPPPPQIPNSHNMTTTLNYRDGEKVSVLCQENYLIQEGEEITCKDGRWQSIPLCVEKIPCSQPPQIEHGTINSSRSSQESYAHGTKLSYTCEGGFRISEENETTCYMGKWSSPPQCEGLPCKSPPEISHGVVAHMSDSYQYGEEVTYKCFEGFGIDGPAIAKCLGEKWSHPPSCIKTDCLSLPSFENAIPMGEKKDVYKAGEQVTYTCATYYKMDGASNVTCINSRWTGRPTCRDTSCVNPPTVQNAYIVSRQMSKYPSGERVRYQCRSPYEMFGDEEVMCLNGNWTEPPQCKDSTGKCGPPPPIDNGDITSFPLSVYAPASSVEYQCQNLYQLEGNKRITCRNGQWSEPPKCLHPCVISREIMENYNIALRWTAKQKLYSRTGESVEFVCKRGYRLSSRSHTLRTTCWDGKLEYPTCAKR
Consider B1, for which the Kd in assay [1] was found to be 3.79 µM; in assay [2], 6.37 µM.

B2: human membrane cofactor protein (MCP) (natural protein)
chain: CEEPPTFEAMELIGKPKPYYEIGERVDYKCKKGYFYIPPLATHTICDRNHTWLPVSDDACYRETCPYIRDPLNGQAVPANGTYEFGYQMHFICNEGYYLIGEEILYCELKGSVAIWSGKPPICEKVLCTPPPKIKNGKHTFSEVEVFEYLDAVTYSCDPAPGPDPFSLIGESTIYCGDNSVWSRAAPECKVVKCRFPVVENGKQISGFGKKFYYKATVMFECDKGFYLDGSDTIVCDSNSTWDPPVPKCLKVLPPSSTKPPALSHSVSTSSTTKSPASSASGPRPTYKPPVSNYPGYPKPEEGILDSLDVWVIAVIVIAIVVGVAVICVVPYRYLQRRKKKGTYLTDETHREVKFTSL
In the case of B2, the Kd in assay [3] stood at 2100 nM.

B3: recombinant human FH SCRs 19–20 (domain or fragment)
chain: GKCGPPPPIDNGDITSFPLSVYAPASSVEYQCQNLYQLEGNKRITCRNGQWSEPPKCLHPCVISREIMENYNIALRWTAKQKLYSRTGESVEFVCKRGYRLSSRSHTLRTTCWDGKLEYPTCAK
modifications: C3b made from plasma-purified C3 by factor B/factor D cleavage (C3a released); beta and alpha' chains disulfide-linked; thioester (Cys1010-Gln1013) hydrolysed; N-glycosylated; amine-coupled to CM5 chip
With B3, in assay [4], the Kd is above 17.4 µM.

The values above are taken from article PMC6391106 (2019).
